# Assay results as given in patent US12083165B2, “Thymosin alpha 1 for use in treatment of cystic fibrosis” (SciClone Pharmaceuticals International (SG) PTE. LTD., priority 2015, dated 2024).
# Assays:
# ΔF508 CFTR [1] = target: T1, ΔF508 CFTR (Homo sapiens, UniProt P13569, DEL508-508); experiment: Chloride permeability by SPQ fluorescence assay upon forskolin stimulation, CFBE41o− cells; format: cell-based
# Protocol: (§1) Cells. Cell Lines and Cell Culture—Human bronchial epithelial (HBE) cells, homozygous for the […] mutation and its isogenic wild-type were obtained from lung transplants (CF patients) or lung resections (non-CF patients) (kindly provided by L J Galietta within the Italian Cystic Fibrosis Foundation). Cells were maintained at 37° C. in a humidified incubator in an atmosphere containing 5% CO2, and the experiments were done 5 days after plating (21, 22). Stable lentiviral-based transduction of the parental CFBE41o− cells (ΔF508/ΔF508), originally immortalized and characterized by Dr. D. Gruenert and co-workers (32) with either WT-CFTR or ΔF508-CFTR, was performed by Tranzyme, Inc. (Birmingham, AL). […]
# (§2) The activity of Tα1, either alone or in combination with ivacaftor, has been comparatively assessed with that of lumacaftor on CFBE41o− cells expressing ΔF508 CFTR and on HBE cells from CF patients. To this purpose, cells were treated with Tα1 (100 ng/ml), VX-770 (1 μM) or VX-809 (3 μM) alone or in combination for 24 hours and assessed for CFTR protein expression and function. […] In terms of ion channel activity, Tα1, either alone or in combination with ivacaftor, increased the chloride permeability of ΔF508 CFTR cells between 60 to 70% relative to control (considering WT control as 100% reference value)(B, assessed by a fluorescence assay upon stimulation with fosforkolin, Fsk). […]
# ΔF508 CFTR [2] = target: T1, ΔF508 CFTR; experiment: Chloride permeability by SPQ fluorescence assay upon forskolin stimulation, HBE cells from CF patients; format: cell-based
# Protocol: as §1, §2
# [3] = tested on: A. fumigatus-infected C57BL/6 and Cftr−/− mice; experiment: IL-1 cytokine levels in BAL by ELISA in CF mice with aspergillosis; format: in vivo; conditions: 200 μg/kg/i.p. daily 6 days, 7 days post-infection
# Protocol: Mice. Wild-type (WT) inbred C57BL6 mice, 8 to 12 weeks old, were purchased from Charles River Breeding Laboratories (Calco, Italy). Genetically engineered homozygote Cftr^−/− mice (33) were bred at the Cystic Fibrosis core animal facility at San Raffaele Hospital, Milan, Italy. Experiments were performed following protocols approved by the institutional animal committee and in accordance with European Economic Community Council Directive as well as institutional animal care and use guidelines.
# Infection and treatments. Mice were anesthetized by i.p. injection of 2.5% avertin (Sigma Chemical Co, St. Louis, MO) before intranasal instillation of 2×10^7 A. fumigatus (Af293) resting conidia/20 μl saline. For histology, paraffin-embedded tissue were stained with Periodic acid-Schiff (PAS), and BAL fluid collection was done as described (21, 22). Treatments were as follow: Tα1 and the scrambled polypeptide were supplied as purified (the endotoxin levels were <0.03 pg/ml, by a standard limulus lysate assay) sterile, lyophilized, acetylated polypeptide. The sequences were as follows: Ac-[…]O (Tα1) (SEQ ID NO:1) and Ac-[…]OH (scrambled peptide) (SEQ ID NO:2). The lyophilized powders were reconstituted in sterile water and 200 μg/kg/i.p. were given daily for 6 consecutive days beginning the day of the infection.
# Cytokine determination by ELISA. Cytokine levels in lung homogenates from treated and untreated mice were determined by cytokine-specific ELISA (R&D Systems, Inc. Space Import-Export srl, Milan, Italy) as described (21, 22)
# C57BL/6 and Cftr^−/− mice were infected intranasally with live A. fumigatus conidia and treated with 200 μg/kg/i.p. Tα1 daily for 6 consecutive days beginning the day of the infection. […] The levels of IL-1β, IL-1α and IL-1RA in the BAL were measured by ELISA (pg/ml) at 7 days post-infection. The results shown represent pooled data from two experiments. *P<0.05; **P<0.01; ***P<0.001.
# [4] = either type of mice (C57BL/6, Cftr−/−)
# T1 sequence (P13569 with tags, fused parts or gaps DEL508-508): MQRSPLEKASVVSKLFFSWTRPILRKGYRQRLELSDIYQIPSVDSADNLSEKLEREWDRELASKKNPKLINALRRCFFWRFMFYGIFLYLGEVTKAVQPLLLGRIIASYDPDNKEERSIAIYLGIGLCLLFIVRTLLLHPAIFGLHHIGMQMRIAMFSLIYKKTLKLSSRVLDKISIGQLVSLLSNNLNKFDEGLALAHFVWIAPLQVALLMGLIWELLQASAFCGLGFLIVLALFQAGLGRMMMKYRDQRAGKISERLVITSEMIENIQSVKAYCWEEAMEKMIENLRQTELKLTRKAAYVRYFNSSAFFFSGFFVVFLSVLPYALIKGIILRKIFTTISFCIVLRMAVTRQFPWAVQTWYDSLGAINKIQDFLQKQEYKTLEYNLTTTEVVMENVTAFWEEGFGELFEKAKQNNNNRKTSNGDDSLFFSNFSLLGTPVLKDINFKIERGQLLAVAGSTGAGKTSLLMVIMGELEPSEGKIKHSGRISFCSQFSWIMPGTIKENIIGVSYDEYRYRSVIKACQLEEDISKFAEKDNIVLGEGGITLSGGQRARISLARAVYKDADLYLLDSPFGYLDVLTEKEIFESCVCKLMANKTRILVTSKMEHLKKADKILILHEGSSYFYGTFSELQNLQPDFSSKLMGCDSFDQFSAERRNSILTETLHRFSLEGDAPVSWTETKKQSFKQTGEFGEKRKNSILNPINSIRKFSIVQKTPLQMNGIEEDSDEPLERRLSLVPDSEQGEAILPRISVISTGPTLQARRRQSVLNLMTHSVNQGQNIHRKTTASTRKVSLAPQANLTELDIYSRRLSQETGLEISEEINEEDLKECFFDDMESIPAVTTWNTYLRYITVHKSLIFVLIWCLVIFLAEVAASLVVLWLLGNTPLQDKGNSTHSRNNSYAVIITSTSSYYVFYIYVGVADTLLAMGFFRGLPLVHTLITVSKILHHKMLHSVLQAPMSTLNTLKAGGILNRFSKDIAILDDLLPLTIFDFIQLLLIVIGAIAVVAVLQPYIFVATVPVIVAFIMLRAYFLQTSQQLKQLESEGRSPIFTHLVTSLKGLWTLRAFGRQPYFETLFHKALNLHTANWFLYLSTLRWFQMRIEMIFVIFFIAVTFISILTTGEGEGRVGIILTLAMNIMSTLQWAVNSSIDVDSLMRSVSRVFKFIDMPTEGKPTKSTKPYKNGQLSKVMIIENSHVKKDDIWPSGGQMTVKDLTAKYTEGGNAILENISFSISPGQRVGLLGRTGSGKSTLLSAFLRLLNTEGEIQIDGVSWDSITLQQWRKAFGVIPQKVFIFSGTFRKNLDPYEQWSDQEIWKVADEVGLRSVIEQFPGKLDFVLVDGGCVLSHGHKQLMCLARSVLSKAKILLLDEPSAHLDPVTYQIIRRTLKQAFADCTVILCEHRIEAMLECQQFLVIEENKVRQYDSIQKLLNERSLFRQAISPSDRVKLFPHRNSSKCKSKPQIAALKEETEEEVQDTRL
substance,measurement,setting,value
"Ac-Ser-Asp-Ala-Ala-Val-Asp-Thr-Ser-Ser-Glu-Ile-Thr-Thr-Lys-Asp-Leu-Lys-Glu-Lys-Lys-Glu-Val-Val-Glu-Glu-Ala-Glu-Asn-O (Ac-SDAAVDTSSEITTKDLKEKKEVVEEAEN-OH; not fully specified; printed as Ac-Ser-Asp-Ala-Ala-Val-Asp-Thr-Ser-Ser-Glu-Ile-Thr-Thr-Lys-Asp-Leu-Lys-Glu-Lys-Lys-Glu-Val-Val-Glu-Glu-Ala-Glu-Asn-O; listed as Homo sapiens) [Tα1, naturally occurring polypeptide of 28 amino acid; supplied as purified sterile, lyophilized, acetylated polypeptide]",chloride permeability of ΔF508 CFTR cells relative to control (WT control as 100%),"ΔF508 CFTR [1]; 100 ng/ml Tα1 for 24 hours, CFBE41o− cells, forskolin stimulation",approximately 70%
same,ion channel activity compared to lumacaftor,"ΔF508 CFTR [1]; CFBE41o− cells expressing ΔF508 CFTR, 24 hours",lower
same,chloride permeability of ΔF508 CFTR cells relative to control (WT control as 100%),"ΔF508 CFTR [2]; 100 ng/ml Tα1 for 24 hours, forskolin stimulation",approximately 70%
same,ion channel activity compared to lumacaftor,ΔF508 CFTR [2]; 24 hours,similar
same,levels of the inflammatory-blocking cytokine IL-1RA in the BAL,[3],increased
same,levels of IL-1α in the BAL,[3]; [4],sharply decreased
same,levels of IL-1β in the BAL,[3]; [4],sharply decreased
